Laboratory results: patent US20240343806A1

Target: mouse CTLA4 (mouse) (UniProt P09793)
Assay: flow cytometry on CHO-mCTLA4 cells; SSC vs Anti-Human-IgGFc-FITC

Chain of mouse CTLA4 (mouse) (P09793 36-223 S182T limits assumed): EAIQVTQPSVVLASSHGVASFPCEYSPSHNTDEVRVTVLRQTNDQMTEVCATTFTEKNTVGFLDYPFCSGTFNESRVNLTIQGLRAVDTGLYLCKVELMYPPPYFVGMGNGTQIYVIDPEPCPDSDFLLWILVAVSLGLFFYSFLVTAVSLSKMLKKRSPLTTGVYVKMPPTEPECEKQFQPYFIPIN

- % cells in the FITC-positive gate: 0.133%
Substance: NC
